In patent US9657062B2, “Ghrelin analogues” (Zealand Pharma A/S, priority 2012, dated 2017):
Bridges are numbered along the chain shown (N, C = ends). [ ]: non-standard residue; d: D form. The star is where a group is joined. Palmitoyl = CCCCCCCCCCCCCCCC(=O)*; Octanoyl = CCCCCCCC(=O)*; Dap = NC[C@H](N)C(=O)O; Aib = CC(C)(N)C(=O)O; Octyl = CCCCCCCC*

Target: human growth hormone secretagogue receptor type 1a (human, UniProt Q92847 1-366)
Test: cell-based or functional assay

Sequence of human growth hormone secretagogue receptor type 1a (Q92847 whole entry): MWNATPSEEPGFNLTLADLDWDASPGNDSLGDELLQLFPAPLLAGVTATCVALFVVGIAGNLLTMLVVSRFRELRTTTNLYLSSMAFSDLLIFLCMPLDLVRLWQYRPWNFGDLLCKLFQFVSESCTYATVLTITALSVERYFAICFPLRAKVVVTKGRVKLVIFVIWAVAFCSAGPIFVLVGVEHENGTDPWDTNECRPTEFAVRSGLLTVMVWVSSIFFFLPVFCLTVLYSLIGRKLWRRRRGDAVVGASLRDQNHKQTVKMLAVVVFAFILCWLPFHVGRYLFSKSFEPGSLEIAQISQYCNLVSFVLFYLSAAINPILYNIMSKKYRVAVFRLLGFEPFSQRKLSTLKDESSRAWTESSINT

B1: H-PS-S(O-octyl)-FLSPEHQRVQQRKES-K(hexadecanoyl)-KPPAKLQPR-OH (peptide)
peptide: H-PSS(Octyl)FLSPEHQRVQQRKESK(Palmitoyl)KPPAKLQPR-OH
SMILES: CCCCCCCCCCCCCCCC(=O)NCCCC[C@H](NC(=O)[C@H](CO)NC(=O)[C@H](CCC(=O)O)NC(=O)[C@H](CCCCN)NC(=O)[C@H](CCCNC(=N)N)NC(=O)[C@H](CCC(N)=O)NC(=O)[C@H](CCC(N)=O)NC(=O)[C@@H](NC(=O)[C@H](CCCNC(=N)N)NC(=O)[C@H](CCC(N)=O)NC(=O)[C@H](Cc1c[nH]cn1)NC(=O)[C@H](CCC(=O)O)NC(=O)[C@@H]1CCCN1C(=O)[C@H](CO)NC(=O)[C@H](CC(C)C)NC(=O)[C@H](Cc1ccccc1)NC(=O)[C@H](COCCCCCCCC)NC(=O)[C@H](CO)NC(=O)[C@@H]1CCCN1)C(C)C)C(=O)N[C@@H](CCCCN)C(=O)N1CCC[C@H]1C(=O)N1CCC[C@H]1C(=O)N[C@@H](C)C(=O)N[C@@H](CCCCN)C(=O)N[C@@H](CC(C)C)C(=O)N[C@@H](CCC(N)=O)C(=O)N1CCC[C@H]1C(=O)N[C@@H](CCCNC(=N)N)C(=O)O
  EC50 (nM); Ca2+ induction in HEK293 cells stably expressing the human ghrelin receptor: 2.88 nM

B2: H-[DPro]-S-S(O-octyl)-FLSPEHQRVQQRKES-K(hexadecanoyl)-KPPAKLQPR-OH (peptide)
peptide: XSSFLSPEHQRVQQRKESKKPPAKLQPR
modifications: DPro at position 1; Ser(O-octyl) at position 3; K(hexadecanoyl) at position 19; C-terminal -OH
  EC50 (nM); Ca2+ induction in HEK293 cells stably expressing the human ghrelin receptor: 4.63 nM

B3: H-Aib-S-S(O-octyl)-FLSPEHQRVQQRKES-K(hexadecanoyl)-KPPAKLQPR-OH (peptide)
peptide: H-[Aib]SS(Octyl)FLSPEHQRVQQRKESK(Palmitoyl)KPPAKLQPR-OH
SMILES: CCCCCCCCCCCCCCCC(=O)NCCCC[C@H](NC(=O)[C@H](CO)NC(=O)[C@H](CCC(=O)O)NC(=O)[C@H](CCCCN)NC(=O)[C@H](CCCNC(=N)N)NC(=O)[C@H](CCC(N)=O)NC(=O)[C@H](CCC(N)=O)NC(=O)[C@@H](NC(=O)[C@H](CCCNC(=N)N)NC(=O)[C@H](CCC(N)=O)NC(=O)[C@H](Cc1c[nH]cn1)NC(=O)[C@H](CCC(=O)O)NC(=O)[C@@H]1CCCN1C(=O)[C@H](CO)NC(=O)[C@H](CC(C)C)NC(=O)[C@H](Cc1ccccc1)NC(=O)[C@H](COCCCCCCCC)NC(=O)[C@H](CO)NC(=O)C(C)(C)N)C(C)C)C(=O)N[C@@H](CCCCN)C(=O)N1CCC[C@H]1C(=O)N1CCC[C@H]1C(=O)N[C@@H](C)C(=O)N[C@@H](CCCCN)C(=O)N[C@@H](CC(C)C)C(=O)N[C@@H](CCC(N)=O)C(=O)N1CCC[C@H]1C(=O)N[C@@H](CCCNC(=N)N)C(=O)O
  EC50 (nM); Ca2+ induction in HEK293 cells stably expressing the human ghrelin receptor: 2.9 nM

## H-PSS(Octyl)FLSPEHQRVQQRKESKKPPAKLQPR-OH [H-PS-S(O-octyl)-FLSPEHQRVQQRKESKKPPAKLQPR-OH]
  EC50 (nM); Ca2+ induction in HEK293 cells stably expressing the human ghrelin receptor: 0.579 nM

## XSSFLSPEHQRVQQRKESKKPPAKLQPR (DPro at position 1; Ser(O-octyl) at position 3; C-terminal -OH) [H-[DPro]-S-S(O-octyl)-FLSPEHQRVQQRKESKKPPAKLQPR-OH]
  EC50 (nM); Ca2+ induction in HEK293 cells stably expressing the human ghrelin receptor: 0.77 nM

B4: H-Aib-S-S(O-octyl)-FLSPEHQRVQQRKESKKPPAKLQPR-OH (peptide)
peptide: H-[Aib]SS(Octyl)FLSPEHQRVQQRKESKKPPAKLQPR-OH
SMILES: CCCCCCCCOC[C@H](NC(=O)[C@H](CO)NC(=O)C(C)(C)N)C(=O)N[C@@H](Cc1ccccc1)C(=O)N[C@@H](CC(C)C)C(=O)N[C@@H](CO)C(=O)N1CCC[C@H]1C(=O)N[C@@H](CCC(=O)O)C(=O)N[C@@H](Cc1c[nH]cn1)C(=O)N[C@@H](CCC(N)=O)C(=O)N[C@@H](CCCNC(=N)N)C(=O)N[C@H](C(=O)N[C@@H](CCC(N)=O)C(=O)N[C@@H](CCC(N)=O)C(=O)N[C@@H](CCCNC(=N)N)C(=O)N[C@@H](CCCCN)C(=O)N[C@@H](CCC(=O)O)C(=O)N[C@@H](CO)C(=O)N[C@@H](CCCCN)C(=O)N[C@@H](CCCCN)C(=O)N1CCC[C@H]1C(=O)N1CCC[C@H]1C(=O)N[C@@H](C)C(=O)N[C@@H](CCCCN)C(=O)N[C@@H](CC(C)C)C(=O)N[C@@H](CCC(N)=O)C(=O)N1CCC[C@H]1C(=O)N[C@@H](CCCNC(=N)N)C(=O)O)C(C)C
  EC50 (nM); Ca2+ induction in HEK293 cells stably expressing the human ghrelin receptor: 0.46 nM

## PSSFLSPEHQRVQQRKESKKPPAKLQPR (Dap(N-octanoyl) at position 3; C-terminal amide (-NH2)) [H-PS-Dap(N-octanoyl)-FLSPEHQRVQQRKESKKPPAKLQPR-NH2]
  EC50 (nM); Ca2+ induction in HEK293 cells stably expressing the human ghrelin receptor: 0.193 nM

B5: H-PS-Dap(N-octanoyl)-FLSPEHSRVSSRKESKKPPAKLSPR-NH2 (peptide)
peptide: H-PS[Dap](Octanoyl)FLSPEHSRVSSRKESKKPPAKLSPR-NH2
SMILES: CCCCCCCC(=O)NC[C@H](NC(=O)[C@H](CO)NC(=O)[C@@H]1CCCN1)C(=O)N[C@@H](Cc1ccccc1)C(=O)N[C@@H](CC(C)C)C(=O)N[C@@H](CO)C(=O)N1CCC[C@H]1C(=O)N[C@@H](CCC(=O)O)C(=O)N[C@@H](Cc1c[nH]cn1)C(=O)N[C@@H](CO)C(=O)N[C@@H](CCCNC(=N)N)C(=O)N[C@H](C(=O)N[C@@H](CO)C(=O)N[C@@H](CO)C(=O)N[C@@H](CCCNC(=N)N)C(=O)N[C@@H](CCCCN)C(=O)N[C@@H](CCC(=O)O)C(=O)N[C@@H](CO)C(=O)N[C@@H](CCCCN)C(=O)N[C@@H](CCCCN)C(=O)N1CCC[C@H]1C(=O)N1CCC[C@H]1C(=O)N[C@@H](C)C(=O)N[C@@H](CCCCN)C(=O)N[C@@H](CC(C)C)C(=O)N[C@@H](CO)C(=O)N1CCC[C@H]1C(=O)N[C@@H](CCCNC(=N)N)C(N)=O)C(C)C
  EC50 (nM); Ca2+ induction in HEK293 cells stably expressing the human ghrelin receptor: 0.224 nM

B6: H-PS-Dap(N-octanoyl)-FLSPEHQRVQQRKESKKPPA-NH2 (peptide)
peptide: H-PS[Dap](Octanoyl)FLSPEHQRVQQRKESKKPPA-NH2
SMILES: CCCCCCCC(=O)NC[C@H](NC(=O)[C@H](CO)NC(=O)[C@@H]1CCCN1)C(=O)N[C@@H](Cc1ccccc1)C(=O)N[C@@H](CC(C)C)C(=O)N[C@@H](CO)C(=O)N1CCC[C@H]1C(=O)N[C@@H](CCC(=O)O)C(=O)N[C@@H](Cc1c[nH]cn1)C(=O)N[C@@H](CCC(N)=O)C(=O)N[C@@H](CCCNC(=N)N)C(=O)N[C@H](C(=O)N[C@@H](CCC(N)=O)C(=O)N[C@@H](CCC(N)=O)C(=O)N[C@@H](CCCNC(=N)N)C(=O)N[C@@H](CCCCN)C(=O)N[C@@H](CCC(=O)O)C(=O)N[C@@H](CO)C(=O)N[C@@H](CCCCN)C(=O)N[C@@H](CCCCN)C(=O)N1CCC[C@H]1C(=O)N1CCC[C@H]1C(=O)N[C@@H](C)C(N)=O)C(C)C
  EC50 (nM); Ca2+ induction in HEK293 cells stably expressing the human ghrelin receptor: 0.136 nM

B7: H-PS-Dap(N-octanoyl)-FLSP-NH2 (peptide)
peptide: H-PS[Dap](Octanoyl)FLSP-NH2
SMILES: CCCCCCCC(=O)NC[C@H](NC(=O)[C@H](CO)NC(=O)[C@@H]1CCCN1)C(=O)N[C@@H](Cc1ccccc1)C(=O)N[C@@H](CC(C)C)C(=O)N[C@@H](CO)C(=O)N1CCC[C@H]1C(N)=O
  EC50 (nM); Ca2+ induction in HEK293 cells stably expressing the human ghrelin receptor: 0.26 nM

B8: H-PS-Dap(N-octanoyl)-FLS-NH2 (peptide)
peptide: H-PS[Dap](Octanoyl)FLS-NH2
SMILES: CCCCCCCC(=O)NC[C@H](NC(=O)[C@H](CO)NC(=O)[C@@H]1CCCN1)C(=O)N[C@@H](Cc1ccccc1)C(=O)N[C@@H](CC(C)C)C(=O)N[C@@H](CO)C(N)=O
  EC50 (nM); Ca2+ induction in HEK293 cells stably expressing the human ghrelin receptor: 1.2 nM

B9: H-PS-Dap(N-octanoyl)-FL-NH2 (peptide)
peptide: H-PS[Dap](Octanoyl)FL-NH2
SMILES: CCCCCCCC(=O)NC[C@H](NC(=O)[C@H](CO)NC(=O)[C@@H]1CCCN1)C(=O)N[C@@H](Cc1ccccc1)C(=O)N[C@@H](CC(C)C)C(N)=O
  EC50 (nM); Ca2+ induction in HEK293 cells stably expressing the human ghrelin receptor: 1.69 nM

## H-PS[NH‑CH(n-C10H21)‑C(O)]FLSPEHQRVQQRKES-NH2 [H-PS-[NH-CH(n-C10H21)-C(O)]-FLSPEHQRVQQRKES-NH2]
  EC50 (nM); Ca2+ induction in HEK293 cells stably expressing the human ghrelin receptor: 0.164 nM

## H-PS[NH‑CH(n-C10H21)‑C(O)]FLSPEHQRVQQRKESKKPPA-NH2 [H-PS-[NH-CH(n-C10H21)-C(O)]-FLSPEHQRVQQRKESKKPPA-NH2]
  EC50 (nM); Ca2+ induction in HEK293 cells stably expressing the human ghrelin receptor: 0.255 nM

B10: H-GS-S(octanoyl)-FLSPE()HQRK()QQRKESKKPPAKLQPR-OH (peptide)
peptide: H-GSS(Octanoyl)FLSPEHQRKQQRKESKKPPAKLQPR-OH
modifications: lactam 8-12
SMILES: CCCCCCCC(=O)OC[C@H](NC(=O)[C@H](CO)NC(=O)CN)C(=O)N[C@@H](Cc1ccccc1)C(=O)N[C@@H](CC(C)C)C(=O)N[C@@H](CO)C(=O)N1CCC[C@H]1C(=O)N[C@H]1CCC(=O)NCCCC[C@@H](C(=O)N[C@@H](CCC(N)=O)C(=O)N[C@@H](CCC(N)=O)C(=O)N[C@@H](CCCNC(=N)N)C(=O)N[C@@H](CCCCN)C(=O)N[C@@H](CCC(=O)O)C(=O)N[C@@H](CO)C(=O)N[C@@H](CCCCN)C(=O)N[C@@H](CCCCN)C(=O)N2CCC[C@H]2C(=O)N2CCC[C@H]2C(=O)N[C@@H](C)C(=O)N[C@@H](CCCCN)C(=O)N[C@@H](CC(C)C)C(=O)N[C@@H](CCC(N)=O)C(=O)N2CCC[C@H]2C(=O)N[C@@H](CCCNC(=N)N)C(=O)O)NC(=O)[C@H](CCCNC(=N)N)NC(=O)[C@H](CCC(N)=O)NC(=O)[C@H](Cc2c[nH]cn2)NC1=O
  EC50 (nM); Ca2+ induction in HEK293 cells stably expressing the human ghrelin receptor: 0.534 nM

B11: H-GS-S(octanoyl)-FLSPEHE()RVQK()RKESKKPPAKLQPR-OH (peptide)
peptide: H-GSS(Octanoyl)FLSPEHERVQKRKESKKPPAKLQPR-OH
modifications: lactam 10-14
SMILES: CCCCCCCC(=O)OC[C@H](NC(=O)[C@H](CO)NC(=O)CN)C(=O)N[C@@H](Cc1ccccc1)C(=O)N[C@@H](CC(C)C)C(=O)N[C@@H](CO)C(=O)N1CCC[C@H]1C(=O)N[C@@H](CCC(=O)O)C(=O)N[C@@H](Cc1c[nH]cn1)C(=O)N[C@H]1CCC(=O)NCCCC[C@@H](C(=O)N[C@@H](CCCNC(=N)N)C(=O)N[C@@H](CCCCN)C(=O)N[C@@H](CCC(=O)O)C(=O)N[C@@H](CO)C(=O)N[C@@H](CCCCN)C(=O)N[C@@H](CCCCN)C(=O)N2CCC[C@H]2C(=O)N2CCC[C@H]2C(=O)N[C@@H](C)C(=O)N[C@@H](CCCCN)C(=O)N[C@@H](CC(C)C)C(=O)N[C@@H](CCC(N)=O)C(=O)N2CCC[C@H]2C(=O)N[C@@H](CCCNC(=N)N)C(=O)O)NC(=O)[C@H](CCC(N)=O)NC(=O)[C@H](C(C)C)NC(=O)[C@H](CCCNC(=N)N)NC1=O
  EC50 (nM); Ca2+ induction in HEK293 cells stably expressing the human ghrelin receptor: 0.597 nM
